The source of these data is PMC4650826.

The target of experiment [1] is Hcp1 (hemolysin-coregulated protein 1) of Burkholderia pseudomallei, recombinant wildtype (B. pseudomallei). Nature of the experiment: dynamic light scattering; 8 mg/mL; apparent molecular weight in solution.
The target is the same in experiment [2]. Briefly: AUC.

“And” between values parts separate entries of the source, which are not always exact repeats. Equal values may be shown once.

The term stoichiometry N denotes a count of units in the complex or per binding partner. Consider “Hcp1 (hemolysin-coregulated protein 1) of Burkholderia pseudomallei, recombinant wildtype (natural protein)”, for which the stoichiometry N in experiment [1] was 12; in experiment [2], 6 and 12.
